The domain aggregation screens of Martell et al. (2025)

Assay: soluble fraction after stress (log2 fold change); higher = more stays soluble; pooled small domains, quantitative proteomics
Settings: stress: 50 degC
In short: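 Custom libraries of small protein domains were pooled and measured in a high-throughput format, with quantitative proteomics as the read-out. Each library was stressed at 50°C. The value is the log2 fold change in the amount of each protein that stays soluble after stress, used as a measure of aggregation propensity; higher values mean more of the protein stays soluble.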

Sequence | soluble fraction (log2)
HMKKQLTISDGDWAGKVSSMLEDMGVINSASEFDKYLSDNGYSNVIKSGTYDVSPEDTFQELAEKIT | 0.414
HMKKRDAEIMLQREFKLTEAIAMVRDRDIQELLPIALYFKVNINQPTAEIRYNLLNIAKSKTQEFIEAFD | -1.96
HMKKRDANSQGTRLILFYMLQRLHTEYKLQGFVTYNQRRSFREIYDAYHALGGNGFGTAMWEEVKELDLK | -1.43
HMKKTAAKVLGESEGKPVTVQSGRYGPYVQLGSIRATLPKDLEQDDVTLDRALELISAKAERAGK | 0.122
HMKKTDFNVENYDIEELAAILNFKYVPLNQGLIRDRIKDMKQRFKNKPEYIKFFTDVEIKLVNNLNLFN | -1.24
HMKKTFSKSSVMEAIFRDIPNITIPNAHEVYTLIKNISVMNKRKSITSEDIEKAYDALGLTP | -0.865
HMKKTPLSELTNRAVELFIETVFMERNYSVSSQRQFISALKIFTVFYPQTKIHNLSLERLQSSFDKLLN | -0.452
HMKKTTEFAVTPEFQQRLEASPELKAAFQALTPGRQRAHLLFFAAPKQAQTRQARIEKSLPQIMAGKGLN | -0.184
HMKKTVTDSVELLTFLKDIFTNTSTNKLRKMLTTGRVTVNNIVIHKAKHILVQNDVVEIGDK | -1.86
HMKKVIEFKDVSFAFEKKPILQDFNLLVQNKDRIGIVGDNGVGKSTLLNLIAERLQPQSGQVII | 0.00568
HMKKVSVKPILELRAAGISMRKIETLMHVSRHTISAIYKAADAYSISWDNVKDFDEDKIYEMLFPPTP | -1.94
HMKKYEIIFNDLKQSIVNGKYSNEERLPPEETLAKKYQTSRVPVQQALNALVGIGMVKRIAGSGTYVTY | -0.628
HMKKYFPPKSRFNPNKYLLKDWMALGLSEKQSQSILNFIQRGIYSNSALEKIYVMPEEVFTLIKDSTYYEE | -1.34
HMKKYIEIYNYYKQLIESEQLKSGDKMPSVRKATKIFNVSKTTVQNAYFDLQADGYIIAAPKSGYYVTEM | -0.295
HMKKYLNIYNIIVNKIESKEYQSNDKLPSEKELMDQYNVSRDTVRKSLNMLEQNGYIQKTKGKGSFVLDIN | -0.634
HMKLEEITIIVPSLRLDNFVSDLARTSRSKAVQIIDSERVFINGQNETKASKQVKLGDVITSA | -0.277
HMKLHPRDQERTRAISARGERLYAVTVGDLRRRIGEMLEWFGRQIESQEPMRVAKAARRITDFFDQVEAFT | -2.06
HMKLIRLGKAAGELNVGMSTLAEFLQSKGHSVDPNPNTKLTPEQYALLRMEFAADQTLKKLTKQP | 0.198
HMKLKHANGNHPLTQQEKQNMIEEAAKHYGDYMTALGFDWKQDPNSSDTPMRVAKAFVNDLAEGVY | 0.0454
HMKLLLSANISKLRKKYSMTQEQLAEALGVTFASVSKWERGVATPELKLIAEMADMFEVSIDALIGYEFRN | -1.39
HMKLPIEKESYRIIWDLEEESFRIRLKISENSPQEEKNILINQAIEDIENITGEPIDKSPYYVLYE | 0.0672
HMKLPNSFGSIQKLSGNRRKPYRVVKTIGWDENGKQIRKTLGYYETRAKALQELALFNEKPYD | -0.804
HMKLTALWTANPKISAPIYSEPSTQSKTLGRIYQGASVKVYSFDPEWAYINSSGVVGYVLRRHLE | -0.323
HMKLTINIDAAHDGKTIKQLFAEKGYSLELIKKFKYDGAIEVNGERKTVRWVLREGDLLVLEAN | -1.25
HMKLTNIQYETLKVVVESRAKIDEEEGITIKLEDIKKYIDQAISFTGLVGDDEDYKKLFADMEYRFKIQ | -2.38
HMKLVAAGYHQNRLLVLLGIQAEELQAKRLLASFDRFRGREATPKPPIHDSARRWLRDTYHHVMNQVPVEL | -1.07
HMKMHKIIKERRLALNFTQEQVAKYLGVTTPAVNKWEKGISYPDISLLPALARLLDTDLNTLLSF | -2.1
HMKMLPAEVLTHPAVVALIERGAPTGSITPEEVRQASEDAAVEPRHLKALLAHLSALGISVQIP | -0.217

Sequence | soluble fraction (log2)
HMKMLSIQRREAIRALLLEKESITIAEVMEKFQISVETARRDFDALADEGFLNKVYGGATLKK | -1.37
HMKMPNGYGSITKLSGKRRKPWRVRKTAGWELDAKTQKLKQTYINIGYYETRADAMSALVSYNEDP | -0.898
HMKMQPVISQGVLYINNVTDVRTIEVFDISGRIVADAAASTTVNIAHLNEGPYIVKVTTVNGIESIKILNK | -0.223
HMKNAMTDIYLEEIKKILTKNEFLVYTLRELNNFSVQFITDNYDLSEKTIYNSVYRAKKKIDRHFT | -0.0693
HMKNDKLLIFMELKGISRTQLSKSTGIPASTLGRIINGDVQKIKAVYMEAIANALDTSIHTIFDV | -1.27
HMKNDNIHMMASKINGIALEVGVLTPGMHPKNDLSEGEVGYIVTNLKTTREAKVGDTVTLAKKPAATPLPG | 0.254
HMKNETFAITSEDAGKRLDVWLTNILGDYSRSYVERLVEQGNVTVGGKTVKAGYKLKAGDSVQVSIPGPK | 0.138
HMKNISSEEDREKALSLGITQEFIDNKGRYFITVPNKPSNFKEQALNIQKEISEQIDTVINKRFEF | -0.0173
HMKNLDILTPKEIEVLNLVAKGYSNSKISKELDIAEVTVKKHIGSMFQKLDVKDRLSLALIL | -0.118
HMKNLKPSTEVILKELVKRYPDQTEFRKQQIVDVGQSFGYKGKDYGPIFDADNRVKIGTYDLAGLIVPLQR | -0.0461
HMKNLNVIDLSALRTLELKESSDWTLIQKRFKLLVKKYHPDMNAGSKQYEEKLKKITLAYTHLKKLF | -2.42
HMKNQQLFNIGDRFQVDGVAYRMEKLFPENGTVEVYNLGVGRHKTMSFEEILALWNSGKLLFEI | -0.185
HMKNSIKLDNFVGMSYDEVISNKEYDFNFVSAFEKTSDYEAGTIIGQTPAAEERVMVGTTVTLTVAQP | 0.0342
HMKNTADRVYENLFHMLVSGDYAPGDRIPSEHELKERFNVSRNTIRAALNRMNALGIIETRQGDGTYLKG | -0.243
HMKNTFGLTEREMEVLALIVDGLSNPEIAEKLFITRATAKAHVHSILQKLYVDDRTQAAVTAMREGL | -1.23
HMKNTIPVPHIIGLSEQEARETLERAGLQLNVIKTEPNTKYESGQVTDTNPNEGIKVPKGTIVNVVLADS | -0.00961
HMKNTLDAYIRYLSNFLSRNNYPEAEDLSFINARADQAYEVFLEARRGGVDVSTAEELAMIALMQGY | -1.13
HMKNVEEMILGKLKRKVSENLENASFEEIILVDAEKSVYKGIIKANYIEYYFRVNLSTGEVLSWKLK | -0.373
HMKPAFTPYVVKVTADVLNVRSGPGTNYGITTKVKKGEAYTIVEEKNGWGKLKSGAGWISLEYTVK | -0.109
HMKPALFSADELNRLYRYGLSLTGERDRAYDLLQTALEKYLRQSQAPANAMRYVRKIMHNQFIDDYR | -1.13
HMKPDWLSDGRLIPDEVMSHLRKIAVHAVEEMGYSPEDVIKILGLSRNTIYDWLKRFREHGYEGLDTKK | -0.258
HMKPLAQQVNDYLAATRTSIATLANEIPGYSRPTISRYLAGKYDGDITTIEKLLAEWLAQRTG | -0.354
HMKPNEYVSGETFPYLGKNYRLKVLHGSENSVRLKGGYFITTISNRDSQLSTVKSLLEDWYQTHADK | 0.0439
HMKPPTIELSYSEFIELVERGKVSKVIFSSDNYTLKGETVNGENFETVRPPFLEDNLSEILTIHKVPVSSE | -0.208
HMKPSKTVYTTANLNLRNGASMSAAVYTSVSRGTALATTGRTTSGWTQITHRGRTLWASSKYLTTTTPP | -2.68
HMKPSNRSYPTALRMEVIGIIRERYADFGPTLAGEKLAELHGIHLGRETIRQWMMAAGLWKDRR | -0.825
HMKPTVKVPNVVNLSLRNAQIQLQNYGLEVGSISYESSRFKNAVLRQSISEGSVVEKGTTINLVISDGL | -0.203
